{
  "source": "paper PMC7990223",
  "key": {"human ACE2 (human)": {"target": "human ACE2 (human) (UniProt Q9BYF1)", "sequence (Q9BYF1 18-805)": "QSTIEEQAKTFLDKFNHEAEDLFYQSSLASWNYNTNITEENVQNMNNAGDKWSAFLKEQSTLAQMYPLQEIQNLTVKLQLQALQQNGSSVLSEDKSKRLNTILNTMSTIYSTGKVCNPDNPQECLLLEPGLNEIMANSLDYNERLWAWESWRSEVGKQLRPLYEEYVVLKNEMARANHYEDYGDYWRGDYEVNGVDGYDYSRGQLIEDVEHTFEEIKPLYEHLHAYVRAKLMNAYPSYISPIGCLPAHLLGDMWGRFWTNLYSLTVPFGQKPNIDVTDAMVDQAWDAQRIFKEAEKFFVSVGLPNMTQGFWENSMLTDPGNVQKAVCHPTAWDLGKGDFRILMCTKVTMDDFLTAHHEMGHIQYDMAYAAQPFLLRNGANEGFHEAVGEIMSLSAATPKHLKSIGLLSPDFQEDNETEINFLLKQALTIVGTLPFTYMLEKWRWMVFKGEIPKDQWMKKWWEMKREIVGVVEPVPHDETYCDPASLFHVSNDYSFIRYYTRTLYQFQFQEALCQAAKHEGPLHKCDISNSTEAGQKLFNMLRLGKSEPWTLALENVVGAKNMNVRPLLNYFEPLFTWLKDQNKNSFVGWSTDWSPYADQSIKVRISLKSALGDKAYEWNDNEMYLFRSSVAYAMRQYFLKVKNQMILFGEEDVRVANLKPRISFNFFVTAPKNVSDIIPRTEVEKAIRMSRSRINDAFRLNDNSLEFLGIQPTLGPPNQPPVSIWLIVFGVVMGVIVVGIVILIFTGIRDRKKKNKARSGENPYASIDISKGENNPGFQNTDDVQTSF", "experiment": "flow cytometry on cells"}, "mouse ACE2 (mouse)": {"target": "mouse ACE2 (mouse) (UniProt Q8R0I0)", "sequence (Q8R0I0 18-805)": "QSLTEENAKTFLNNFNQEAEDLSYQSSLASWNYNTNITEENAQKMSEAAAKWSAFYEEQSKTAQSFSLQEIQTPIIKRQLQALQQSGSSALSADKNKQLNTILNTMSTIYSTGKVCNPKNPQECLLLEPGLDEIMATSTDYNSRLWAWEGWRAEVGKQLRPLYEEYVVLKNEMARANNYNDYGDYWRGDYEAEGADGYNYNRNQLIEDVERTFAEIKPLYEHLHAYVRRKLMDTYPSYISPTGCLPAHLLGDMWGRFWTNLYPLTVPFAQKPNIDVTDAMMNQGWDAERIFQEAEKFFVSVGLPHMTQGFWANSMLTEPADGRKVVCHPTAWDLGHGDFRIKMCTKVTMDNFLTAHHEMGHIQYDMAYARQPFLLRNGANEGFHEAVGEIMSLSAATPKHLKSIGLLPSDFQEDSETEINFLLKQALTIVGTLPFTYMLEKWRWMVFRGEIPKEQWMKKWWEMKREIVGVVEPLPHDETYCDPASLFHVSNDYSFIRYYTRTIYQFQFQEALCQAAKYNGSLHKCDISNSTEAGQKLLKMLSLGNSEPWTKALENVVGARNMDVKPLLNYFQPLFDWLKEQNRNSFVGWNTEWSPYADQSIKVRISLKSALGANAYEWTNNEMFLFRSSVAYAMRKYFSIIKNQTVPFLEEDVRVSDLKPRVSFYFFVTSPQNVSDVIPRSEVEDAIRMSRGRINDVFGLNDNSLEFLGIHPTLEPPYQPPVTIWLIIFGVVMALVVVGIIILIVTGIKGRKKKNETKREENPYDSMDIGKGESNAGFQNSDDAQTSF", "experiment": "flow cytometry on cells"}},
  "data": [
    {"substance": "S1 domain of the SARS-CoV spike protein C-terminally fused with Fc (from UniProt P59594 14-667) (Fc fusion)", "values": [
      {"measurement": "percent of ACE2-expressing (zsGreen1+) cells positive for S1-Fc", "setting": "human ACE2 (human)", "result": 64, "unit": "%"},
      {"measurement": "percent of ACE2-expressing (zsGreen1+) cells positive for S1-Fc", "setting": "mouse ACE2 (mouse)", "result": 40.4, "unit": "%"}
    ]}
  ]
}
